Test results as given in patent US7569579B2, “Cyclopropyl compounds as ccr5 antagonists” (SmithKline Beecham Corporation, priority 2002, dated 2009).

Biological target: T1, human CCR5 chemokine receptor (Homo sapiens, UniProt P51681)
T1 construct: host or cells: Chinese Hamster Ovary (CHO) cells; membranes prepared from the cell pellet
Experiment: CC-Chemokine Receptor-5 binding by scintillation proximity assay (CCR5 SPA), displacement of 125I-MIP1α
Settings: standard compound, 14-point concentration-response curve in triplicate
Protocol: CC-Chemokine Receptor-5 Binding by Scintillation Proximity Assay (CCR5 SPA) Scintillation Proximity Assay for the Human CC-Chemokine Receptor, CCR-5
This protocol describes a high-throughput screen using SPA binding to identify compounds that inhibit binding of ^125I-MIP1α to the human CCR5 chemokine receptor.
Human CCR5 receptors were expressed in Chinese Hamster Ovary (CHO) cells, registration # 12025. Cells were grown in suspension and a 50 to 80 ml CCR5 cell pellet was prepared. […]
The saturation curve binding experiment is performed by adding varying amounts of [^125I]MIP1α (0-8.5 nM to membranes and beads in concentrations chosen from the optimal protein/bead ratio. The data is analyzed using a non-linear curve-fitting program. The Kd and Bmax are derived from the curve. […]

T1 sequence (P51681 whole entry): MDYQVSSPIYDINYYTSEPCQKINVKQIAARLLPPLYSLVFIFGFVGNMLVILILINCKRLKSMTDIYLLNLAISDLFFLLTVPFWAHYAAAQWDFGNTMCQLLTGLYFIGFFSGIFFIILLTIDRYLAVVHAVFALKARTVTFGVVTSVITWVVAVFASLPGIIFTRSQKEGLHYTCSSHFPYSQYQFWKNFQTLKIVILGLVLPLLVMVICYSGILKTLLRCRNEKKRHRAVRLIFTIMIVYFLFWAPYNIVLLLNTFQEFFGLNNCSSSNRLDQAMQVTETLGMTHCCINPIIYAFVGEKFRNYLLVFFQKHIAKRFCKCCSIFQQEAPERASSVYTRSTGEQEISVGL

“MIP1α: standard compound of the CCR5 SPA; natural chemokine ligand of CCR5 (Peprotech)” was tested, and the “average historical pKi” value was 7.6.
